Measurements reported in patent US20090149339A1 (published 2009).
Ends that are not written are not given here. * marks the point of attachment. Biotin = O=C1N[C@H]2[C@H](CS[C@H]2CCCCC(=O)*)N1

Key:
[1] = target: GST-PTN-4 PDZ domain fusion protein (protein-tyrosine phosphatase meg1 AA774-862; PDZ domain 1 of 1) (UniProt P08515 1-218 = GST); experiment: A/G assays
[2] = target: GST-LIMK2 PDZ domain fusion protein (human LIM domain kinase 2 AA185-275; PDZ domain 1 of 1) (human, UniProt P08515 1-218 = GST); experiment: A/G assays
Chain of GST-LIMK2 PDZ domain fusion protein (human LIM domain kinase 2 AA185-275; PDZ domain 1 of 1) (P08515 1-218, tags or fused parts left off): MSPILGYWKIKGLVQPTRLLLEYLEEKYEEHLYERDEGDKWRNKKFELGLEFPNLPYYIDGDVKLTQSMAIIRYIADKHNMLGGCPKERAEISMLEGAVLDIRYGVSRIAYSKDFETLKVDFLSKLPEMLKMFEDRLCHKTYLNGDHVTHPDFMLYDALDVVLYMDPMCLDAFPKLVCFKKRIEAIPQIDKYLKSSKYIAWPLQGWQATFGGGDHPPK

[3] = target: T1, GST-TAX2 PDZ domain fusion protein (human tax interaction protein 2 AA54-140; PDZ domain 1 of 1) (human, UniProt P08515 1-218 = GST); experiment: A/G assays
T1 construct: also called TX 2
T1 sequence (P08515 1-218, tags or fused parts left off): as above

[4] = target: T2, GST-SYN1a PDZ domain fusion protein (alpha1-syntrophin AA96-189; PDZ domain 1 of 1) (UniProt P08515 1-218 = GST); experiment: A/G assays
T2 construct: also called SYN 1 alpha; SYNTR 1 alpha

[5] = target: T3, GST-KIAA0559 PDZ domain fusion protein (KIAA0559 AA766-870; PDZ1 of 1) (UniProt P08515 1-218 = GST); experiment: A/G assays
T3 construct: also called K559
T3 sequence (P08515 1-218, tags or fused parts left off): as above

[6] = target: GST-LIM PDZ domain fusion protein (Human LIM protein AA29-112; PDZ domain 1 of 1) (human, UniProt P08515 1-218 = GST); experiment: A/G assays
Chain of GST-LIM PDZ domain fusion protein (Human LIM protein AA29-112; PDZ domain 1 of 1) (P08515 1-218, tags or fused parts left off): as above

[7] = target: GST-MPP1 PDZ domain fusion protein (55 Kd erythrocyte membrane protein AA101-186; PDZ domain 1 of 1) (UniProt P08515 1-218 = GST); experiment: A/G assays
Chain of GST-MPP1 PDZ domain fusion protein (55 Kd erythrocyte membrane protein AA101-186; PDZ domain 1 of 1) (P08515 1-218, tags or fused parts left off): as above

[8] = target: T4, GST-TAX33 PDZ domain fusion protein (tax interaction protein 33 AA73-162; PDZ domain 1 of 1) (UniProt P08515 1-218 = GST); experiment: A/G assays
T4 construct: also called TX33

[9] = target: T5, GST-RGS12 PDZ domain fusion protein (human regulator of G-protein signalling 12 AA35-103; PDZ domain 1 of 1) (human, UniProt P08515 1-218 = GST); experiment: A/G assays
T5 construct: also called RSG12
T5 sequence (P08515 1-218, tags or fused parts left off): as above

[10] = target: T6, GST-MPP2 PDZ domain fusion protein (maguk p55 subfamily member 2 (DLG2) AA185-273; PDZ domain 1 of 1) (UniProt P08515 1-218 = GST); experiment: A/G assays
T6 construct: also called MMP2
T6 sequence (P08515 1-218, tags or fused parts left off): as above

[11] = target: GST-DVL1 PDZ domain fusion protein (human dishevelled segment polarity protein homolog AA248-340); PDZ domain … (human, UniProt P08515 1-218 = GST); experiment: A/G assays
Chain of GST-DVL1 PDZ domain fusion protein (human dishevelled segment polarity protein homolog AA248-340); PDZ domain … (P08515 1-218, tags or fused parts left off): as above

[12] = target: T7, GST-TAX43 PDZ domain fusion protein (human tax interaction protein 43 AA15-85; PDZ domain 1 of 1) (human, UniProt P08515 1-218 = GST); experiment: A/G assays
T7 construct: also called TX 43
T7 sequence (P08515 1-218, tags or fused parts left off): as above

[13] = target: GST-AF6 PDZ domain fusion protein (af-6 protein AA985-1077; PDZ domain 1 of 1) (UniProt P08515 1-218 = GST); experiment: A/G assays
Chain of GST-AF6 PDZ domain fusion protein (af-6 protein AA985-1077; PDZ domain 1 of 1) (P08515 1-218, tags or fused parts left off): as above

[14] = target: T8, GST-KIAA0316 PDZ domain fusion protein (KIAA0316 AA197-284; PDZ domain 1 of 1) (UniProt P08515 1-218 = GST); experiment: A/G assays
T8 construct: also called K316
T8 sequence (P08515 1-218, tags or fused parts left off): as above

[15] = target: GST-MINT3 PDZ domain fusion protein (human MINT3 AA11-52; PDZ domain 1 of 1) (human, UniProt P08515 1-218 = GST); experiment: A/G assays
Chain of GST-MINT3 PDZ domain fusion protein (human MINT3 AA11-52; PDZ domain 1 of 1) (P08515 1-218, tags or fused parts left off): as above

[16] = target: T9, GST-KIAA0303 PDZ domain fusion protein (KIAA0303 AA652-742; PDZ domain 1 of 1) (UniProt P08515 1-218 = GST); experiment: A/G assays
T9 construct: also called K303

[17] = target: T10, GST-PSD95 PDZ domain fusion protein (human post-synaptic density protein 95 AA387-724; PDZ domains 1-3 of 3) (human, UniProt P08515 1-218 = GST); experiment: A/G assays
T10 sequence (P08515 1-218, tags or fused parts left off): as above

[18] = target: GST-NOS1 PDZ domain fusion protein (human neuronal nitric oxide synthase; PDZ domain 1 of 1) (human, UniProt P08515 1-218 = GST); experiment: A/G assays
Chain of GST-NOS1 PDZ domain fusion protein (human neuronal nitric oxide synthase; PDZ domain 1 of 1) (P08515 1-218, tags or fused parts left off): as above

[19] = target: GST-prIL16 PDZ domain fusion protein (putative interleukin 16 precursor AA170-383; PDZ domains 1-2 of 2) (UniProt P08515 1-218 = GST); experiment: A/G assays
Chain of GST-prIL16 PDZ domain fusion protein (putative interleukin 16 precursor AA170-383; PDZ domains 1-2 of 2) (P08515 1-218, tags or fused parts left off): as above

[20] = target: T11, GST-TAX40 PDZ domain fusion protein (human tax interaction protein 40 AA35-137; PDZ domain 1 of 1) (human, UniProt P08515 1-218 = GST); experiment: A/G assays
T11 construct: also called TX 40

[21] = target: T12, GST-NeDLG PDZ domain fusion protein (presynaptic protein sao102, neuroendocrine-dlg; PDZ domains 1-2 of 3) (UniProt P08515 1-218 = GST); experiment: A/G assays
T12 construct: also called NeDLG1
T12 sequence (P08515 1-218, tags or fused parts left off): as above

[22] = target: T13, GST-CBP PDZ domain fusion protein (Cytohesin binding protein HE AA85-175; PDZ domain 1 of 1) (UniProt P08515 1-218 = GST); experiment: A/G assays
T13 construct: also called Prot
T13 sequence (P08515 1-218, tags or fused parts left off): as above

[23] = target: T14, GST-TIAM1 PDZ domain fusion protein (T-lymphoma invasion and metastasis inducing protein 1 AA1001-1088); PDZ 1 … (UniProt P08515 1-218 = GST); experiment: A assay
T14 sequence (P08515 1-218, tags or fused parts left off): as above

[24] = target: T15, GST-41.8 kD PDZ domain fusion protein (hypothetical 41.8 kD protein AA4-85; PDZ domain 1 of 1) (UniProt P08515 1-218 = GST); experiment: A and G assays
T15 construct: also called hypoth
T15 sequence (P08515 1-218, tags or fused parts left off): as above

[25] = target: T14, GST-TIAM1 PDZ domain fusion protein …; experiment: A/G assays
[26] = target: T15, GST-41.8 kD PDZ domain fusion protein …; experiment: A/G assays
[27] = target: T16, GST-CASK PDZ domain fusion protein (CASK AA495-584; PDZ domain 1 of 1) (mouse, UniProt P08515 1-218 = GST); experiment: A/G assays
T16 construct: also called mCASK
T16 sequence (P08515 1-218, tags or fused parts left off): as above

[28] = target: T10, GST-PSD95 PDZ domain fusion protein …; experiment: A assay
[29] = target: T12, GST-NeDLG PDZ domain fusion protein …; experiment: A assay
[30] = target: T6, GST-MPP2 PDZ domain fusion protein …; experiment: G assay
[31] = target: T15, GST-41.8 kD PDZ domain fusion protein …; experiment: A assay
[32] = target: T12, GST-NeDLG PDZ domain fusion protein …; experiment: A and G assays

Chain of GST-PTN-4 PDZ domain fusion protein (protein-tyrosine phosphatase meg1 AA774-862; PDZ domain 1 of 1) (P08515 1-218, tags or fused parts left off): as above

Row | Binder | binding result [1] | binding result [2] | binding result [3] | binding result [4] | binding result [5] | binding result [6] | binding result [7] | binding result [8] | binding result [9] | binding result [10] | binding result [11] | binding result [12] | binding result [13] | binding result [14] | binding result [15] | binding result [16] | binding result [18] | binding result [19] | binding result [20] | binding result [22] | other results
1 | Biotin-PKQANGGAYQKPTKQEEFYA [CD138 (syndecan) C-terminal PL peptide AA18L, biotinylated] | no binding | no binding | no binding | no binding | no binding | no binding | no binding | no binding | no binding | no binding | no binding | no binding | no binding | no binding | no binding | no binding | no binding | no binding | no binding | no binding | binding result [17]: no binding; binding result [21]: no binding; binding result [23]: binds; binding result [24]: binds
2 | Biotin-VTSPNKHLGLVTPHKTELV [CD83 C-terminal PL peptide AA47L, biotinylated] | no binding | no binding | no binding | no binding | no binding | no binding | no binding | no binding | no binding | no binding | no binding | no binding | no binding | no binding | no binding | no binding | no binding | no binding | no binding | no binding | binding result [25]: no binding; binding result [26]: no binding; binding result [27]: no binding; binding result [28]: binds; binding result [29]: binds
3 | Biotin-ERLKLEPHEGLLLRFPYAA [CD98 (2F4) C-terminal PL peptide AA15L, biotinylated] | no binding | no binding | no binding | no binding | no binding | no binding | no binding | no binding | no binding | – | no binding | no binding | no binding | no binding | no binding | no binding | no binding | no binding | no binding | no binding | binding result [30]: binds; binding result [25]: no binding; binding result [26]: no binding; binding result [17]: no binding; binding result [27]: no binding; binding result [21]: no binding
4 | Biotin-KDSRPSFVGSSSGHTSTTL [CDW128B (IL8RB) C-terminal PL peptide AA29.2L, biotinylated] | no binding | no binding | no binding | no binding | no binding | no binding | no binding | no binding | – | no binding | no binding | no binding | no binding | no binding | no binding | no binding | no binding | no binding | no binding | no binding | binding result [25]: no binding; binding result [27]: no binding; binding result [31]: binds; binding result [28]: binds; binding result [32]: binds
